The values that follow come from US20240239864A1.

The experiment addresses HLA-A2 (HLA-A*02:01) on cells (T2 cells; K562A2 cells) (human). In words: T2 peptide-binding assay: T2 cells with peptide at 100 µg/mL overnight, surface HLA-A2 by flow cytometry (T2 only: 3.34E+05). A general note: A flow cytometer gives signals particle by particle.

“HPV-16 E7 p11-19 peptide (from UniProt P03129 11-19)” returned a Mean Fluorescence Intensity (surface HLA-A2) of 492000.
